Results published in patent publication US6355481.

Target: HAP1-A (Huntingtin Associated Protein 1-A) (UniProt P54256)
Assay: cell-based or functional assay

HAP1-A (Huntingtin Associated Protein 1-A), sequence (P54256 other isoform, or with tags, fused parts or gaps limits assumed): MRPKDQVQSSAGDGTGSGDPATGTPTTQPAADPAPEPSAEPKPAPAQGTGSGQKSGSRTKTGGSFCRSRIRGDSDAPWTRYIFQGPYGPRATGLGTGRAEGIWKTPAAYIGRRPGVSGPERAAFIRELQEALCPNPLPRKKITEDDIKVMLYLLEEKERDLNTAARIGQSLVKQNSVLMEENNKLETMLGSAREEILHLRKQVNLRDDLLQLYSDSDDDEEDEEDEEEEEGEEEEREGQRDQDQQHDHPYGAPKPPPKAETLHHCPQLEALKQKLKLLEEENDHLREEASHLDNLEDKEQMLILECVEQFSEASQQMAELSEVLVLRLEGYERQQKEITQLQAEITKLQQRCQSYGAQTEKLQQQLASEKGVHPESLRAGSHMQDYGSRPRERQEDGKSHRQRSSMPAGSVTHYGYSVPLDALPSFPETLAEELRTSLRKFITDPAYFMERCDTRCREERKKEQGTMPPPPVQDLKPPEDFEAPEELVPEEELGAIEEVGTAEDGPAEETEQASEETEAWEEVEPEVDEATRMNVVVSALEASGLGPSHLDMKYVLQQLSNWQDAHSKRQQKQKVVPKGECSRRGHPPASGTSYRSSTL

percentage of HAP1-A and huntingtin double-transfected PC12 cells with elongated neurites | Substance
15.2% | N-terminal region of human huntingtin protein (amino acids 1-253) with 73 glutamines (HD-73Q) (from UniProt P42858 1-253)
7.5% | N-terminal region of human huntingtin protein (amino acids 1-253) with 120 glutamines (HD-120Q) (from UniProt P42858 1-253)
